According to patent US12329814B2, “Combination of a substance modulating tumor immune microenvironment and immunotherapy for the treatment of cancer” (Boostimmune, Inc., priority 2022, dated 2025):

What was measured:
[1] = test system: B16F10 tumors; assay: Flow cytometry of tumor-infiltrating immune cells, B16F10 tumors, anti-TCTP and anti-PD-1 antibodies; assay type: in vivo, C57BL/6 mice; settings: B16F10, 12 days; 55F3 200 μg i.p. every 2 days and/or anti-PD-1 RMP1-14 10 mg/kg i.p. days 0, 3, 7, 10, 14; FIG. 11C
Description: (§1) Effect of the combination of anti-TCTP antibody and anti-PD-1 antibody on T cells and NK cells in the TIME was also studied. Tumor-infiltrating immune cells were collected from B16F10 and MC38 tumors treated with anti-TCTP antibody and/or anti-PD-1 antibody and were then analyzed by flow cytometry. B16F10 cells (5×10^5 cells) or MC38 cells (3×10^5 cells) were transplanted subcutaneously into C57BL/6 mice. Anti-PD-1 antibody RMP1-14 (BioXCell; 10 mg/kg) was administered intraperitoneally on days 0, 3, 7, 10, 14 after the inoculation, and anti-TCTP antibody 55F3 (200 μg in 200 μL PBS) was administered intraperitoneally in the mice every 2 days after the inoculation. After 15 days (MC38) or 12 days (B16F10) of transplantation, single cell suspensions were prepared from tumors and subjected to flow cytometry analysis.

[2] = test system: SL4 tumor cells; assay: SL4 subcutaneous tumor in C57BL/6 mice treated with anti-TCTP antibody; assay type: in vivo; settings: 200 μg/mouse intraperitoneally every other day from Day 1, vs control IgG
Description: (§2) Peritoneal exudate cells (PECs) (2×10^5 cells) were stimulated with conditioned supernatant of SL4 cells containing antibody 55F3 or control IgG, and after 2 hours of stimulation, Cxcl1 mRNA levels were determined by RT-qPCR. As a result of blockade of extracellular TCTP with antibody 55F3, the expression of Cxcl1 mRNA was suppressed (FIG. 6A). Subsequently, SL4 cells were transplanted into C57BL/6 mice via subcutaneous injection, and 55F3 or control IgG (200 μg/mouse) was then intraperitoneally administered to the mice every other day, starting from Day 1 after the transplantation, and the volume of the tumor was measured. As a result, the proliferation speed of SL4 tumor cells was decreased by administration of 55F3 (FIG. 6B), and the amount of PMN-MDSCs in the TIME was decreased (FIG. 6C).

[3] = biological target: T1, extracellular TCTP (Mus musculus, UniProt P63028); assay: Cxcl1 mRNA in peritoneal exudate cells stimulated with SL4 conditioned supernatant (RT-qPCR); assay type: cell-based; settings: PECs stimulated 2 hours with conditioned supernatant of SL4 cells containing antibody, vs control IgG; FIG. 6A
T1 construct: stimulated with conditioned supernatant of SL4 cells containing antibody 55F3 or control IgG; endogenous in cells; host or cells: SL4 mouse colon carcinoma cells (conditioned supernatant), applied to mouse peritoneal exudate cells
T1 sequence (P63028 1-172): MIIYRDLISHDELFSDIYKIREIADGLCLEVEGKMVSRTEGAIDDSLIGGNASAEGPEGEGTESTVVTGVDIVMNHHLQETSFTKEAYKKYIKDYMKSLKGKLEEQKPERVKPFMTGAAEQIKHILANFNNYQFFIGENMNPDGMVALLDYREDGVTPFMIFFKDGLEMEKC
Description: as §2

[4] = test system: B16F10 cells; assay: B16F10 tumor treated with anti-TCTP antibody in combination with anti-PD-1 antibody; assay type: in vivo, C57BL/6 mice; settings: anti-TCTP 100 μg i.p. days 1, 4, 8, 11, 15, 18, 22 plus anti-PD-1 (BioXCell) 100 μg i.v. day 10, compared with checkpoint antibody alone, FIGS. 9A and 9B
Description: The influence of the combination of anti-TCTP antibodies with an anti-PD-1 antibody on tumor suppression was also studied. B16F10 (1×10^5 cells in 50 μL PBS) cells were subcutaneously inoculated into C57BL/6 mice (Day 1). An anti-PD-1 antibody (BioXCell; 100 μg in 100 μL PBS) was administered intravenously ten days after the inoculation, and anti-TCTP antibodies 55F3 and 1-2-4 (each 100 μg in 100 μL PBS) were administered intraperitoneally in the mice on days 1, 4, 8, 11, 15, 18, and 22. As a result, the effect of suppressing tumor proliferation is improved by the combined administration of an anti-TCTP antibody and a PD-1 or CTLA-4 antagonist antibody, compared with the case of single administration of a PD-1 or CTLA-4 antagonist antibody alone (FIGS. 9A and 9B).

[5] = test system: SL4 TCTP KO+hTCTP tumor cells; assay: TCTP KI SL4 (TCTP KO+hTCTP) subcutaneous tumor in C57BL/6 mice treated with anti-TCTP antibodies; assay type: in vivo; settings: 100 μg intraperitoneally on days 1, 4, 8, 11, vs PBS; FIG. 7
Description: HEK293Ta cells (3×10^6 cells) were transfected with pCSII-EF-MCS-IRES2-Venus-hTCTP lentiviral expression vector and its helper vectors (pMDLg/p.RRE and pCMV-VSV-G-RSV-Rev). After 48 hours of the transfection, culture supernatants were collected and filtered (0.45 μm; Millipore). TCTP KO SL4 cells from Example 1 (1×10^6 cells) were infected using the supernatant. After infection, GFP-positive human TCTP-expressing TCTP KO SL4 cells (hereafter TCTP KI SL4 cells) were sorted using FACSMelody cell sorter. TCTP KI SL4 cells (2×10^5 cells/100 μL PBS), TCTP KO SL4 cells (2×10^5 cells/100 μL PBS), or parental SL4 cells (2×10^5 cells/100 μL PBS) were inoculated into C57BL/6 mice. After cell inoculation, tumor volumes were measured over time.
TCTP KI SL4 cells (TCTP KO+hTCTP; 5×10^5 cells in 100 μL PBS) from example 3 were subcutaneously inoculated into C57BL/6 mice (Day 0). Anti-TCTP (100 μg in 100 μL PBS) antibodies were administered intraperitoneally into the mice on days 1, 4, 8, and 11. As a control, 100 μL of PBS was administered. Tumor size was measured on days 3, 6, 9, and 11. As a result, the proliferation speed of SL4 TCTP KO+hTCTP tumor cells was decreased by administration of 55F3 or 1-2-4 (FIG. 7).

[6] = test system: MC38 tumors; assay: Flow cytometry of tumor-infiltrating immune cells, MC38 tumors, anti-TCTP and anti-PD-1 antibodies; assay type: in vivo, C57BL/6 mice; settings: MC38, 15 days; 55F3 200 μg i.p. every 2 days and/or anti-PD-1 RMP1-14 10 mg/kg i.p. days 0, 3, 7, 10, 14; FIG. 11C
Description: as §1

[7] = test system: SL4 cells; assay: SL4 tumor treated with anti-TCTP antibody in combination with anti-PD-1 antibody; assay type: in vivo, C57BL/6 mice; settings: 55F3 i.p. every day from Day 1 plus anti-PD-1 monoclonal antibody (BioLegend) day 10, compared with PD-1 antagonist antibody alone, FIG. 10
Description: This synergistic effect was also confirmed in the experiment using SL4 cells. SL4 cells were transplanted into C57BL/6 mice via subcutaneous injection, and thereafter, antibody 55F3 was intraperitoneally […] into the mice every day, starting from Day 1 after the transplantation. Ten days after the transplantation, an anti-PD-1 monoclonal antibody (BioLegend) was administered to the mice, and the tumor volume was then measured. As a result, it was confirmed that the effect of suppressing tumor proliferation is improved by the combined administration of an anti-TCTP antibody and a PD-1 antagonist antibody, compared with the case of single administration of a PD-1 antagonist antibody alone (FIG. 10).

| Molecule | CD8+ cells in tumor (abundance ratio) [1] | proliferation speed of SL4 tumor cells (tumor volume) ([2]; FIG. 6B) | amount of PMN-MDSCs in the TIME ([2]; SL4 tumor, FIG. 6C) | expression of Cxcl1 mRNA [3] | effect of suppressing tumor proliferation, combined administration with anti-PD-1 antibody [4] | proliferation speed of SL4 TCTP KO+hTCTP tumor cells (tumor size) [5] | CD8+ cells in tumor (abundance ratio) [6] | effect of suppressing tumor proliferation, combined administration with anti-PD-1 antibody [7] |
| --- | --- | --- | --- | --- | --- | --- | --- | --- |
| 55F3: Mouse monoclonal anti-TCTP antibody; VH SEQ ID NO: 25, VL SEQ ID NO: 29; CDRs SEQ ID NO: 1-6 (antibody, listed as Mus musculus) VH: MRVLILLWLFTAFPGILSDVQLQESGPGLVKPSQSLSLTCTATGYSIASDYAWNWIRQFPGNKLEWMGYINYSGSTGYNPSLKSRISITRDTSKNQFFLQLNSVTTEDTATYYCARFEAGYWGQGTTLTVSSAKTTPPSVYPLAPGSAAQTNSMVTLGCLVKGYFPEPVT VL: MDMRTPAQFLGILLLWFPGIKCDIKMTQSPSSMSASLGERVTITCKASQDINRYLSWFQQKPGKSPKTLIYRANRLVDGVPSRFSGSGSGQDYSLTISSLEYGDMGIYYCLQYNEFPLTFGAGTKLELKRADAAPTVSIFPPSSEQLTSGGASVVCFLN | increased | decreased | decreased | suppressed | improved | decreased | increased | improved |
| 1-2-4: Human monoclonal anti-TCTP antibody from CAMOUSE; VH SEQ ID NO: 28, VL SEQ ID NO: 32; CDRs SEQ ID NO: 19-24 (antibody, V domains shown, Variable region of antibody) VH: MDWTWRILFLVAAATGAHSQVQLVQSGAEVKKPGASVKVSCKASGYTFFSYAMHWVRQAPGQRLEWMGWINAGNGNTKYSQKFQDRVTITRDTSATTAYMELSSLRSEDTAVYYCASWVFDYWGQGTPVTVSS VL: MRLLAQLLGLLMLWVPGSSGDIVMTQTPLSSLVTLGQPASISCRSSQSLVHRDGNTYLSWLQQRPGQPPRLLIYKISNRFFGVPDRFSGSGAGTDFTLKISRVEAEDVGVYYCMQATQFPHTFGQGTKLEIK |  |  |  |  | improved | decreased |  |  |
